From IntAct's records for PubMed 19274086

B1: Serine/threonine-protein kinase STK11 (Mus musculus), Q9WTK7 (parent)
chain: MDVADPEPLGLFSEGELMSVGMDTFIHRIDSTEVIYQPRRKRAKLIGKYLMGDLLGEGSYGKVKEVLDSETLCRRAVKILKKKKLRRIPNGEANVKKEIQLLRRLRHRNVIQLVDVLYNEEKQKMYMVMEYCVCGMQEMLDSVPEKRFPVCQAHGYFRQLIDGLEYLHSQGIVHKDIKPGNLLLTTNGTLKISDLGVAEALHPFAVDDTCRTSQGSPAFQPPEIANGLDTFSGFKVDIWSAGVTLYNITTGLYPFEGDNIYKLFENIGRGDFTIPCDCGPPLSDLLRGMLEYEPAKRFSIRQIRQHSWFRKKHPLAEALVPIPPSPDTKDRWRSMTVVPYLEDLHGRAEEEEEEDLFDIEDGIIYTQDFTVPGQVLEEEVGQNGQSHSLPKAVCVNGTEPQLSSKVKPEGRPGTANPARKVCSSNKIRRLSACKQQ

Variants of: B1
Settings: with aapk2_human PRKAA2, P54646
Chain of aapk2_human PRKAA2, P54646 (P54646 whole entry, looked up): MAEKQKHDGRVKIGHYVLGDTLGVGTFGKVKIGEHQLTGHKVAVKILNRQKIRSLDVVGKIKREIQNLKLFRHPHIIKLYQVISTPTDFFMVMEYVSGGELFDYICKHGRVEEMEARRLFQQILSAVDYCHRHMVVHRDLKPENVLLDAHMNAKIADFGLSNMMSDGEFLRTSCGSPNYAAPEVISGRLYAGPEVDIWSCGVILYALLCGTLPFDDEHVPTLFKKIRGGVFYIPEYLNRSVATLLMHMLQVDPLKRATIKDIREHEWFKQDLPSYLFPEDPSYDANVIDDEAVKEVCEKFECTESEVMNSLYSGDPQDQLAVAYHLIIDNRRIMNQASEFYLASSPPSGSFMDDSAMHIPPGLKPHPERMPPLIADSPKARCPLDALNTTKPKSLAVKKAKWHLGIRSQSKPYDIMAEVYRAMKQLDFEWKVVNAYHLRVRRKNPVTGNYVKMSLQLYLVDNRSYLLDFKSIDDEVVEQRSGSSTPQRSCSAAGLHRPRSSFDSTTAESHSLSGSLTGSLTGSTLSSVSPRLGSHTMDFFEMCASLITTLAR

effect of a mutation on the interaction | Variant
decreasing interaction strength | S431D
decreasing interaction strength | S431A
disrupting interaction strength | D194A
